Measured values taken from patent publication US20250066477A1.

Target: human γδ TCR (Vγ9Vδ2) on human γδ T cells (human)
Experiment: cell-based or functional assay

Sequence of human γδ TCR (Vγ9Vδ2) on human γδ T cells (human) (main, as listed by the source): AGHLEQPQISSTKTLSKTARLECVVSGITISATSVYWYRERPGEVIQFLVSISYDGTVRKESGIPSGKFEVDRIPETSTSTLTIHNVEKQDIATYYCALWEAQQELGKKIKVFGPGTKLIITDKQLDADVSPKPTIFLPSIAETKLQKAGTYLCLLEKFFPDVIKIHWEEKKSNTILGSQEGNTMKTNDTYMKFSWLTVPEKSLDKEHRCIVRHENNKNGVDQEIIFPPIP

B1: 1D7v158×5T4 bispecific γδTCR×5T4 molecule (bispecific antibody, part only; not given: anti-5T4 VHH, Fc halves, not shown: a dimerising Fc or GST)
chain, part: EVQLLESGGGEVQPGGSLRLSCVASRGKISQYRMGWYRQAPGKQRELVAHISNTGDAAEYVAPVKGRFTISRDNAKNALYLQMNSLRAEDTAVYKCNTVEDILAWGQGTLVTVEP
With B1 the potency (EC50) of γδ T cell-mediated caspase-3/7 activation / cytotoxicity on A375 cells, against the molecule comprising 1D7v9 was 2 fold.
